Format: biochemical
Conditions: pH 7.2
Experimental: EXAMPLE 3: Protein Purification. TriA and variants thereof were produced in E. coli BL21(DE3) Gold (Agilent Technologies, Germany). Therefore E. coli was transformed with appropriate pET24d N-HIS tag expression vector and chaperone plasmid pGro7 (chaperones groEL and groES). Bacterial strains were grown at 30° C. in 100 mL LB for 20 h and protein expression induced with 0.1 mM IPTG at 25° C. for 20 hs. Cells were harvested by centrifugation at 3000 rpm at 4° C. for 20 min, resuspended in Bug Buster protein extraction reagent (Novagen, Germany) according to manufactures instructions. Lysates were clarified by centrifugation. Samples of bovine serum albumin ([…]) were loaded onto each gel analyzed by densitometry to provide an internal standard. Protein determinations were verified using Coomassie protein assay dye, according to manufactures instruction (Thermo Scientific; USA). The HIS-tagged enzymes were purified by metal ion affinity chromatography using Ni-IDA 1000 kit (Macherey-Nagel, Germany) following manufactures instructions. Protein purity was accessed by SDS-PAGE using NuPAGE Novex 4-12% Bis-Tris pre-cast gels (Life Technologies; USA) stained with Coomassie Brilliant Blue (Serva, Germany). Protein concentrations were estimated by measuring absorbance at 280 nm using Lambda Bio+(Perkin Elmer, USA). EXAMPLE 4: Enzyme kinetics. Resting cell suspension containing triA gene were incubated with various azines, melamine and atrazine and the culture filtrate was analyzed by UPLC-HR-MS. Substrates were obtained either from Sigma-Aldrich or synthesized internally. Synthetic standards and enzyme reaction products were analysed by UPLC-HR-MS (Thermo/Dionex UPLC UltiMate3000 coupled to a QExactive high resolution mass spectrometer). A Waters Acquity HSS T3 column (2.1 mm; 100 mm; […]) was used with a mobile phase water/acetonitrile (0.1% formic acid) with a flow rate of […]. Enzymes were used solved 25 mM sodium phosphate buffer (pH 7.2) with substrate concentration in the range of 1 nM to 10 nM at 30° C. Over time, the original azine peak disappeared whereas the formed OH-Metabolite (reaction product) increased. The product was identified by determination of the exact formula and by analysis of the accurate MS-MS fragments. Moreover for some of the formed products authentic standards were co-eluted. Degradation in % was calculated against the cells harboring the empty vector as control.

B1: D248EE251D: mutated TriA variant of SEQ ID NO: 2 (protein)
chain: MQTLSIQHGTLVTMDQYRRVLGDSWVHVQDGRIVALGVHAESVPPPADRVIDARGKVVLPGFINAHTHVNQILLRGGPSHGRQLYDWLFNVLYPGQKAMRPEDVAVAVRLYCAEAVRSGITTINDNADSAIYPGNIEAAMAVYGEVGVRVVYARMFFDRMDGRIQGYVDALKARSPQVELCSIMEETAVAKDRITALSDQYHGTAGGRISVWPAPAITPAVTVEGMRWAQAFARDRAVMWTLHMAESEHDDRLHWMSPAEYMECYGLLDERLQVAHCVYFDRKDVRLLHRHNVKVASQVVSNAYLGSGVAPVPEMVERGMAVGIGTDDGNCNDSVNMIGDMKFMAHIHRAVHRDADVLTPEKILEMATIDGARSLGMDHEIGSIETGKRADLILLDLRHPQTTPHHHLAATIVFQAYGNEVDTVLIDGNVVMENRRLSFLPPERELAFLEEAQSRATAILQRANMVANPAWRSL
modifications: Pseudomonas
- Degradation in % of 6-cyclopentyl-N4-(2,3,4,5,6-pentafluorophenyl)-1,3,5-triazine-2,4-diamine: 2%
- Degradation in % of Melamine: 1%

B2: Q298S: mutated TriA variant of SEQ ID NO: 2 (protein)
chain: MQTLSIQHGTLVTMDQYRRVLGDSWVHVQDGRIVALGVHAESVPPPADRVIDARGKVVLPGFINAHTHVNQILLRGGPSHGRQLYDWLFNVLYPGQKAMRPEDVAVAVRLYCAEAVRSGITTINDNADSAIYPGNIEAAMAVYGEVGVRVVYARMFFDRMDGRIQGYVDALKARSPQVELCSIMEETAVAKDRITALSDQYHGTAGGRISVWPAPAITPAVTVEGMRWAQAFARDRAVMWTLHMAESDHDERLHWMSPAEYMECYGLLDERLQVAHCVYFDRKDVRLLHRHNVKVASSVVSNAYLGSGVAPVPEMVERGMAVGIGTDDGNCNDSVNMIGDMKFMAHIHRAVHRDADVLTPEKILEMATIDGARSLGMDHEIGSIETGKRADLILLDLRHPQTTPHHHLAATIVFQAYGNEVDTVLIDGNVVMENRRLSFLPPERELAFLEEAQSRATAILQRANMVANPAWRSL
modifications: Pseudomonas
- Degradation in % of 6-cyclopentyl-N4-(2,3,4,5,6-pentafluorophenyl)-1,3,5-triazine-2,4-diamine: 0%
- Degradation in % of Melamine: 83%

B3: Q298N: mutated TriA variant of SEQ ID NO: 2 (protein)
chain: MQTLSIQHGTLVTMDQYRRVLGDSWVHVQDGRIVALGVHAESVPPPADRVIDARGKVVLPGFINAHTHVNQILLRGGPSHGRQLYDWLFNVLYPGQKAMRPEDVAVAVRLYCAEAVRSGITTINDNADSAIYPGNIEAAMAVYGEVGVRVVYARMFFDRMDGRIQGYVDALKARSPQVELCSIMEETAVAKDRITALSDQYHGTAGGRISVWPAPAITPAVTVEGMRWAQAFARDRAVMWTLHMAESDHDERLHWMSPAEYMECYGLLDERLQVAHCVYFDRKDVRLLHRHNVKVASNVVSNAYLGSGVAPVPEMVERGMAVGIGTDDGNCNDSVNMIGDMKFMAHIHRAVHRDADVLTPEKILEMATIDGARSLGMDHEIGSIETGKRADLILLDLRHPQTTPHHHLAATIVFQAYGNEVDTVLIDGNVVMENRRLSFLPPERELAFLEEAQSRATAILQRANMVANPAWRSL
modifications: Pseudomonas
- Degradation in % of 6-cyclopentyl-N4-(2,3,4,5,6-pentafluorophenyl)-1,3,5-triazine-2,4-diamine: 0%
- Degradation in % of Melamine: 5%

B4: Q298C: mutated TriA variant of SEQ ID NO: 2 (protein)
chain: MQTLSIQHGTLVTMDQYRRVLGDSWVHVQDGRIVALGVHAESVPPPADRVIDARGKVVLPGFINAHTHVNQILLRGGPSHGRQLYDWLFNVLYPGQKAMRPEDVAVAVRLYCAEAVRSGITTINDNADSAIYPGNIEAAMAVYGEVGVRVVYARMFFDRMDGRIQGYVDALKARSPQVELCSIMEETAVAKDRITALSDQYHGTAGGRISVWPAPAITPAVTVEGMRWAQAFARDRAVMWTLHMAESDHDERLHWMSPAEYMECYGLLDERLQVAHCVYFDRKDVRLLHRHNVKVASCVVSNAYLGSGVAPVPEMVERGMAVGIGTDDGNCNDSVNMIGDMKFMAHIHRAVHRDADVLTPEKILEMATIDGARSLGMDHEIGSIETGKRADLILLDLRHPQTTPHHHLAATIVFQAYGNEVDTVLIDGNVVMENRRLSFLPPERELAFLEEAQSRATAILQRANMVANPAWRSL
modifications: Pseudomonas
- Degradation in % of 6-cyclopentyl-N4-(2,3,4,5,6-pentafluorophenyl)-1,3,5-triazine-2,4-diamine: 23%
- Degradation in % of Melamine: 100%

B5: S301T: mutated TriA variant of SEQ ID NO: 2 (protein)
chain: MQTLSIQHGTLVTMDQYRRVLGDSWVHVQDGRIVALGVHAESVPPPADRVIDARGKVVLPGFINAHTHVNQILLRGGPSHGRQLYDWLFNVLYPGQKAMRPEDVAVAVRLYCAEAVRSGITTINDNADSAIYPGNIEAAMAVYGEVGVRVVYARMFFDRMDGRIQGYVDALKARSPQVELCSIMEETAVAKDRITALSDQYHGTAGGRISVWPAPAITPAVTVEGMRWAQAFARDRAVMWTLHMAESDHDERLHWMSPAEYMECYGLLDERLQVAHCVYFDRKDVRLLHRHNVKVASQVVTNAYLGSGVAPVPEMVERGMAVGIGTDDGNCNDSVNMIGDMKFMAHIHRAVHRDADVLTPEKILEMATIDGARSLGMDHEIGSIETGKRADLILLDLRHPQTTPHHHLAATIVFQAYGNEVDTVLIDGNVVMENRRLSFLPPERELAFLEEAQSRATAILQRANMVANPAWRSL
modifications: Pseudomonas
- Degradation in % of 6-cyclopentyl-N4-(2,3,4,5,6-pentafluorophenyl)-1,3,5-triazine-2,4-diamine: 1%
- Degradation in % of Melamine: 0%

B6: Q298T: mutated TriA variant of SEQ ID NO: 2 (protein)
chain: MQTLSIQHGTLVTMDQYRRVLGDSWVHVQDGRIVALGVHAESVPPPADRVIDARGKVVLPGFINAHTHVNQILLRGGPSHGRQLYDWLFNVLYPGQKAMRPEDVAVAVRLYCAEAVRSGITTINDNADSAIYPGNIEAAMAVYGEVGVRVVYARMFFDRMDGRIQGYVDALKARSPQVELCSIMEETAVAKDRITALSDQYHGTAGGRISVWPAPAITPAVTVEGMRWAQAFARDRAVMWTLHMAESDHDERLHWMSPAEYMECYGLLDERLQVAHCVYFDRKDVRLLHRHNVKVASTVVSNAYLGSGVAPVPEMVERGMAVGIGTDDGNCNDSVNMIGDMKFMAHIHRAVHRDADVLTPEKILEMATIDGARSLGMDHEIGSIETGKRADLILLDLRHPQTTPHHHLAATIVFQAYGNEVDTVLIDGNVVMENRRLSFLPPERELAFLEEAQSRATAILQRANMVANPAWRSL
modifications: Pseudomonas
- Degradation in % of 6-cyclopentyl-N4-(2,3,4,5,6-pentafluorophenyl)-1,3,5-triazine-2,4-diamine: 0%
- Degradation in % of Melamine: 63%

B7: S301A: mutated TriA variant of SEQ ID NO: 2 (protein)
chain: MQTLSIQHGTLVTMDQYRRVLGDSWVHVQDGRIVALGVHAESVPPPADRVIDARGKVVLPGFINAHTHVNQILLRGGPSHGRQLYDWLFNVLYPGQKAMRPEDVAVAVRLYCAEAVRSGITTINDNADSAIYPGNIEAAMAVYGEVGVRVVYARMFFDRMDGRIQGYVDALKARSPQVELCSIMEETAVAKDRITALSDQYHGTAGGRISVWPAPAITPAVTVEGMRWAQAFARDRAVMWTLHMAESDHDERLHWMSPAEYMECYGLLDERLQVAHCVYFDRKDVRLLHRHNVKVASQVVANAYLGSGVAPVPEMVERGMAVGIGTDDGNCNDSVNMIGDMKFMAHIHRAVHRDADVLTPEKILEMATIDGARSLGMDHEIGSIETGKRADLILLDLRHPQTTPHHHLAATIVFQAYGNEVDTVLIDGNVVMENRRLSFLPPERELAFLEEAQSRATAILQRANMVANPAWRSL
modifications: Pseudomonas
- Degradation in % of 6-cyclopentyl-N4-(2,3,4,5,6-pentafluorophenyl)-1,3,5-triazine-2,4-diamine: 6%
- Degradation in % of Melamine: 0%
